Results from paper PMC12207370, “Macrocyclic Peptide Probes for Immunomodulatory Protein CD59: Potent Modulators of Bacterial Toxin Activity and Antibody‐Dependent Cytotoxicity” (Angewandte Chemie (International Ed. in English), 2025).

Target: T1, biotinylated CD59 (Homo sapiens, UniProt P13987)
T1 construct: Recombinant soluble human CD59 with an additional C-terminal cysteine residue
T1 sequence (P13987 26-102 limits assumed): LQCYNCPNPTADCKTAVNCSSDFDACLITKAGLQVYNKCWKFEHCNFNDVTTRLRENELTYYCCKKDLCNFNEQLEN
Assay: mRNA-display cyclic peptide screen against CD59-biotin, NGS abundance after 6th selection round
Settings: for Percentage Seq I: counts normalised by total counts of sample Seq I; for Percentage Seq I / Percentage Seq II: percentage of the pool; for Percentage Seq I / Percentage Seq II / Percentage Average / Percentage of the pool, averaged across the two sequencing samples / Percentage of the pool, Seq I / Percentage of the pool, Seq II: sheet R6; for Percentage Seq II: counts normalised by total counts of sample Seq II; for Percentage Average: percentage of the pool averaged across the two sequencing samples; for Counts Seq I / Counts Seq II: raw NGS counts of peptide sequence; for Counts Seq I: sequencing sample Seq I; for Counts Seq I / Counts Seq II / Counts (raw counts for peptide sequence), Seq I / Counts (raw counts for peptide sequence), Seq II: sheet R6 (6th selection round); for Counts Seq II: sequencing sample Seq II; for Counts (raw counts for peptide sequence), Seq I: NGS sample Seq I; for Counts (raw counts for peptide sequence), Seq II: NGS sample Seq II; for Percentage of the pool, averaged across the two sequencing samples: average of Seq I and Seq II; for Percentage of the pool, Seq I: counts normalised by total counts of NGS sample Seq I; for Percentage of the pool, Seq II: counts normalised by total counts of NGS sample Seq II
Outline: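 Peptide–mRNA fusions were made by in vitro translation with a customised PURE express kit. The kit lacked release factor 1 and methionine and was supplemented with […] initiator tRNA carrying N-chloroacetyl-d-tyrosine. Thioether macrocycles were formed, then enriched and amplified over iterative rounds on CD59-biotin immobilised on streptavidin beads. NGS read counts per sequence were recorded after the 6th selection round.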

| Sequence | Percentage Seq I | Percentage Seq II | Percentage Average | Counts Seq I | Counts Seq II | Counts (raw counts for peptide sequence), Seq I | Counts (raw counts for peptide sequence), Seq II | Percentage of the pool, averaged across the two sequencing samples | Percentage of the pool, Seq I | Percentage of the pool, Seq II |
| --- | --- | --- | --- | --- | --- | --- | --- | --- | --- | --- |
| WATGSATFSSG | 0.730% | 0.673% | 0.702% | 3196 | 290 | – | – | – | – | – |
| SIRGGRDYTRG | 0.110% | 0.128% | 0.119% | 482 | 55 | – | – | – | – | – |
| CFVLRRNFEGT | – | – | – | – | – | 53 | 5 | 0.012% | 0.012% | 0.012% |
| ISGGRNWRAG | – | – | – | – | – | 65 | 6 | 0.014% | 0.015% | 0.014% |
| SVTGNRDHTRG | 0.021% | 0.026% | 0.023% | 92 | 11 | – | – | – | – | – |
| VVRGGTAFRYE | 0.022% | 0.026% | 0.024% | 96 | 11 | – | – | – | – | – |
| FVTGNSDHTRG | – | – | – | – | – | 52 | 4 | 0.011% | 0.012% | 0.009% |
| LWWSDFYLCVVVRQRQRQLGRGAE | – | – | – | – | – | 65 | 7 | 0.016% | 0.015% | 0.016% |
| CFSHRSNSDGI | 0.092% | 0.081% | 0.087% | 404 | 35 | – | – | – | – | – |
| SWTWGNGSSVRG | 0.187% | 0.186% | 0.186% | 817 | 80 | – | – | – | – | – |
| CLRRSFLDNAGV | – | – | – | – | – | 57 | 7 | 0.015% | 0.013% | 0.016% |
| CFSTRLSRSYGT | 0.016% | 0.026% | 0.021% | 68 | 11 | – | – | – | – | – |
| SKNGLTFLCN | 0.181% | 0.211% | 0.196% | 794 | 91 | – | – | – | – | – |
| SYGGRTFIYAWS | – | – | – | – | – | 62 | 5 | 0.013% | 0.014% | 0.012% |
| WSTRERQISC | – | – | – | – | – | 70 | 3 | 0.011% | 0.016% | 0.007% |
| QFAHRISSCAS | 0.032% | 0.030% | 0.031% | 139 | 13 | – | – | – | – | – |
| CFAGRLTTDAV | 0.044% | 0.044% | 0.044% | 193 | 19 | – | – | – | – | – |
| SAWGNRQIQYC | 0.039% | 0.028% | 0.033% | 170 | 12 | – | – | – | – | – |
| LWGTHSYTYYRP | – | – | – | – | – | 60 | 4 | 0.011% | 0.014% | 0.009% |
